Columns and labels:
[1] = target: the 3 mAbs (2A4, 8G9 and 7D8) as a group; test: Competition ELISA; told for the three mAbs together
[2] = target: murine monoclonal antibody 2A4 (ATCC Accession Number PTA-9662); test: Competition ELISA; human AA amyloid in solution competing with adsorbed mouse AA (AEF) for mAb 2A4
[3] = target: murine monoclonal antibody 7D8 (ATCC Accession Number PTA-9468); test: Competition ELISA; human AA amyloid in solution competing with adsorbed mouse AA (AEF) for mAb 7D8
murine monoclonal antibody 7D8 (ATCC Accession Number PTA-9468), sequence (VL, as listed by the source, chain 1 of 2): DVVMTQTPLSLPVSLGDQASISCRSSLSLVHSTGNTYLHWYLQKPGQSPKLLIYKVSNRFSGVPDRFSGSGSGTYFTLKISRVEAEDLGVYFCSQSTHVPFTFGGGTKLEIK
murine monoclonal antibody 7D8 (ATCC Accession Number PTA-9468), sequence (VH, as listed by the source, chain 2 of 2): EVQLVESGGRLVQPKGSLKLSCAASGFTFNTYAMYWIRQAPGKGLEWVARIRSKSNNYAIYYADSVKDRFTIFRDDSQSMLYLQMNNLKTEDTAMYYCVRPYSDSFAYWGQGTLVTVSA

[4] = target: murine monoclonal antibody 8G9; test: Competition ELISA; human AA amyloid in solution competing with adsorbed mouse AA (AEF) for mAb 8G9
murine monoclonal antibody 8G9, sequence (VL, as listed by the source, chain 1 of 2): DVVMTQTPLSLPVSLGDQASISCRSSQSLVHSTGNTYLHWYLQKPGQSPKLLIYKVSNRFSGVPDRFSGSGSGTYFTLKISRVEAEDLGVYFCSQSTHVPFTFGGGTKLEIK
murine monoclonal antibody 8G9, sequence (VH, as listed by the source, chain 2 of 2): as the sequence (VH, as listed by the source, chain 2 of 2) above

murine monoclonal antibody 2A4 (ATCC Accession Number PTA-9662), sequence (VH, as listed by the source, chain 2 of 2): as above

B1: human AA amyloid (human renal AA amyloid extract; AA deposits in human tissue) (protein, UniProt P0DJI8 19-94, looked up)
Amyloid protein A: RSFFSFLGEAFDGARDMWRAYSDMREANYIGSDKYFHARGNYDAAKRGPGGAWAAEVITDARENIQRFFGHGAEDS
modifications: Amyloid protein A amyloid fibrils
fold of IC50 against murine AEF in solution [1]: 6 to 44 fold | IC50 [2]: > 212 µg/mL | IC50 [3]: > 881 µg/mL | IC50 [4]: > 120 µg/mL
